Laboratory results from the Immune Epitope Database (IEDB).
pKd: −log10 of the molar value.

Columns and labels:
Test in all cases: IEDB peptide-MHC binding, purified MHC/competitive/fluorescence; filed as Kd, often an IC50 or EC50 that approximates it; ≥ and ≤ were set here for values at or beyond the usual limits of such assays
Conditions in all cases: source organism: Salmonella enterica subsp. enterica serovar Typhi
HLA-A*02:01 = biological target: HLA-A*02:01
HLA-A*03:19 = biological target: HLA-A*03:19
HLA-A*32:07 = biological target: HLA-A*32:07
HLA-A*32:15 = biological target: HLA-A*32:15
HLA-A*68:23 = biological target: HLA-A*68:23
HLA-B*15:01 = biological target: HLA-B*15:01
HLA-B*15:42 = biological target: HLA-B*15:42
HLA-B*40:13 = biological target: HLA-B*40:13
HLA-B*45:06 = biological target: HLA-B*45:06
HLA-B*51:01 = biological target: HLA-B*51:01
HLA-B*58:01 = biological target: HLA-B*58:01
HLA-C*04:01 = biological target: HLA-C*04:01
HLA-C*06:02 = biological target: HLA-C*06:02

Sequence: MTMLTRWKI
- pKd (HLA-A*02:01): 6.65
- pKd (HLA-A*03:19): 5.45
- pKd (HLA-A*32:07): 7.11
- pKd (HLA-A*32:15): 7.32
- pKd (HLA-A*68:23): 9.52
- pKd (HLA-B*15:01): ≤ 4.70
- pKd (HLA-B*15:42): ≤ 5.30
- pKd (HLA-B*40:13): 6.44
- pKd (HLA-B*45:06): ≤ 5.30
- pKd (HLA-B*51:01): ≤ 4.70
- pKd (HLA-B*58:01): 8.30
- pKd (HLA-C*04:01): ≤ 5.30
- pKd (HLA-C*06:02): 6.19
